Data: patent US5456909A, “Glycoform fractions of recombinant soluble complement receptor 1 (sCR1) having extended half-lives in vivo” (T Cell Sciences, Inc., priority 1992, dated 1995)

What was measured:
[1] = Pharmacokinetic studies 1, 4, 5, 7, 9: iv clearance of 125I-labelled TP10HD preparations in rats; type: in vivo, Sprague-Dawley rats; conditions: 1 mg/kg
Procedure: In Studies 1, 2, 4, 5, 7 and 9, Iodination was carried out by the chloramine-T procedure. Sodium phosphate buffer, 0.5M, pH 7.6, 50 μl, was added to 1 mCi of Na-^125 I (New England Nuclear, Boston, Mass.) as supplied. The sample of TP10HD, typically 100 μg in 100 μl (Study 5=69 μg; Study 7=34 μg; Study 9=91 μg), was added followed by 50 μl of a 15 mg/ml solution of freshly prepared chloramine-T. The reaction mixture was vigorously shaken for 60 seconds. Sodium metabisulfite (50 μl, 15 mg/ml) and sodium iodide (100 μl, 10 mg/ml) were successively pipetted into the reaction vial. The reaction mixture was passed onto a PD10 column (Pharmacia Fine Chemicals, Piscataway, N.J.), pre-equilibrated with phosphate buffered saline, pH 7.2-7.4, containing 0.1% bovine serum albumin (Sigma Chemical Company, St. Louis, Mo.). Ten 0.5 ml fractions were collected and 2 μl aliquots were counted directly and after combining with 100 μl of a 0.1% bovine serum albumin solution and 1 ml of 20% trichloroacetic acid. After incubation at 0° C. for 1 hour, the acid-precipitable protein associated radioactivity was collected by centrifugation for 10 minutes at 1000×g and quantitated by scintillation counting. Fractions containing >90% of the total radioactivity in the acid precipitate were pooled for further use.
Study 1: Radioiodinated TP10HD-CX was mixed with purified unlabeled TP10HD-CX to yield a dosing solution suitable for administering a 1 mg/kg total TP10HD dose containing 16-25×10^6 cpm of radiolabeled TP10HD-CX.
Study 4: Radioiodinated TP10HD-CC was mixed with purified unlabeled TP10HD-CC to yield a dosing solution suitable for administering a 1 mg/kg or a 3 mg/kg total TP10HD dose containing ~20×10^6 cpm.
Study 5: Radioiodinated TP10HD-CCW was mixed with purified unlabeled TP10HD-CCW to yield a dosing solution suitable for administering a 1 mg/kg total TP10HD dose containing ~20×10^6 cpm.
Study 7: Radiolabeled TP10HD-CCS was mixed with purified unlabeled TP10HD-CCS to yield a dosing solution suitable for administering a 1 mg/kg total TP10HD dose containing ~20×10^6 cpm.
Study 9: Radioiodinated TP10HD-CXD was mixed with purified unlabeled TP10HD-CXD to yield a dosing solution suitable for administering a 1 mg/kg total TP10HD dose containing ~20~10^6 cpm.
In Studies 1, 4, 5, 7 and 9, test material was injected intravenously (iv) into four Sprague-Dawley rats (2 male, 2 female). Blood samples were obtained from the retroorbital plexus at 1, 3, 5, 10, 20, 30, 45, and 60 minutes post injection, and the radioactivity determined. Additional post infusion blood samples were taken at 2, 3, and 4 hours postinjection (STUDY 4) and at 120 minutes (STUDY 5). The plasma fraction of the remaining blood sample was retained for further analysis.
Plasma samples were analyzed for residual test material by measuring:
(1) total residual radioactivity;
(2) percentage of radiolabeled material precipitated with TCA;
(3) residual acid precipitable radioactivity in the presence of SDS; and
(4) material immunologically identifiable in an enzyme immunoassay as TP10HD.
Radioisotope data was quantitated as total cpm/ml blood or plasma and as the percentage of a theoretical time zero value. Pharmacokinetic half-life was calculated from the radiometric data.
In Study 9, removal of N-linked oligosaccharide chains was performed by n-glycanase digestion, performed according to manufacturer's instructions (Genzyme Corporation, Boston, Mass.). Typically, 58 μg TP10HD-CX was incubated with 10.5 units of n-glycanase for 18 hours, 37° C., in 0.2M sodium phosphate, pH 8.6 buffer.
Precipitation with trichloroacetic acid was performed as follows: Plasma (20 μl) was precipitated by sequential addition of 450μl of 0.13M Tris HCl, 4% SDS, 10% glycerol, pH 6.8 buffer, followed by 30 μl of fetal bovine serum and 500μl of 20% trichloroacetic acid. […]

[2] = Isoelectric point by chromatofocusing (Mono P, pH 7.1 to 4.0); type: physicochemical; conditions: chromatofocusing
Procedure: Chromatofocusing is a method of separating isoforms of proteins according to their isoelectric point, pI, using an ion exchange column and a pH gradient created with amphoteric buffers of different pH. In this study, analysis of the TP10HD preparations was performed using a pH gradient of 7.1 to 4.0. The chromatographic resin was Mono P, Hr5/5 (Pharmacia Fine Chemicals, Piscataway, N.J.); the starting buffer was 0.025M Bis/Tris titrated to pH 7.1 with saturated iminodiacetic acid; the eluant was polybuffer 7-4 (Pharmacia Fine Chemicals, Piscataway, N.J.) diluted 1:10 (v/v) with water and adjusted to pH 4.0 with HCl; cleaning buffer was 2M NaCl in water. The experimental conditions were chosen to yield a linear pH gradient of 7.1 to 4.0 units.

[3] = Pharmacokinetic study 2: iv TP10HD-CX in rabbits, residual functional activity by hemolysis inhibition; type: in vivo, Dutch rabbits; conditions: for Peak (t = O) conc / Serum half-life / Total Clearance / Volume of Distribution: iv, 1 mg/kg
Procedure: Study 2: Radioiodinated TP10HD-CX, ~5% w/w, was mixed with purified TP10HD-CX to yield a dosing solution containing 1 mg/ml TP10HD-CX in 0.1M Hepes, 0.15M NaCl, pH 7.4 buffer.
In Study 2, test material was injected iv into two groups of five male Dutch rabbits (approximately 1 kg) at a dose of 1 mg/kg. Blood samples, 2 ml, were taken from an ear artery immediately pre-dosing and at 5, 10, 20, 45, 60, 120, and 180 minutes, and mixed with heparin (final concentration 25 μg/ml). Radioactivity was determined in an aliquot by scintillation counting, and the plasma, obtained by centrifugation at 2000×g for 5 minutes, was stored at -40° C.
Plasma samples were analyzed for residual test material by an in vitro functional assay, inhibition of hemolysis of antibody coated sheep red blood cells (SRBC) by human complement. Pharmacokinetic half-life was calculated from the titer of the residual functional activity.
Rabbit plasma samples were heated at 56° C. for 1 hour in the presence of methylamine (12.5 mM) in order to amidate thioester groups and to inactivate endogenous complement components C3 and C4. […] Test samples were then diluted 1:50 with 0.1 Hepes, 0.15M NaCl, pH 7.4 buffer and assayed.
(§1) SRBC presensitized with rabbit anti-SRBC antibody (Diamedix, Miami, Fla.) were mixed in a V-bottom microtiter wells (Costar, Cambridge, Mass.) with an appropriate dilution of the test plasma and an aliquot of diluted human serum as a complement source. After incubation, 37° C., 1 hour, the unlysed red cells were pelleted by centrifugation, the supernatant transferred to corresponding flat bottom microwells (Costar, Cambridge, Mass.), and absorbance at 415 nm measured. Inhibition of complement-mediated lysis of the antibody coated SRBC was measured as a reduction in the absorbance in the presence of test sample. Standard curves with known quantities of TP10HD can be used to calibrate the assay so that results can be expressed as mg/ml TP10HD remaining in the plasma versus time.

[4] = tested on: complement-mediated lysis of antibody coated SRBC; assay: Inhibition of complement-mediated hemolysis of antibody-sensitized SRBC in vitro; type: cell-based, human
Procedure: as §1, with “sample.” for “sample. Standard curves with known quantities of TP10HD can be used to calibrate the assay so that results can be expressed as mg/ml TP10HD remaining in the plasma versus time.”
A range of dilutions of TP10HD or TP10HD glycoform spanning 7.8 to 1000 ng/ml was examined for each sample.

[5] = in vivo
Procedure: Plasma pharmacokinetic half-lives and/or clearance rates of different glycoform preparations were determined.

[6] = tested on: iC3; conditions: produced in presence of tunicamycin; cited from earlier work
[7] = tested on: post-ischemic myocardial inflammation and necrosis; conditions: in vivo; cited from earlier work
[8] = tested on: reversed passive Arthus reaction; conditions: in vivo; cited from earlier work
[9] = in vivo; cited from earlier work

What does the source list for “TP10HD-CX: TP10HD produced by cells cultured in a hollow fiber bioreactor and purified by HPLC cation exchange chromatography”?
α phase half-life [1]: 4.3 min; β phase half-life [1]: 167 min; average pI, in words [2]: higher average pI than TP10HD-CC; pI of minor isoforms ([2]; smaller quantities / minor component): ≤ 5.0; α phase half-life ([3]; Study 2, iv, 1 mg/kg (Table 3 summary)): 9 to 11 min; Peak (t = O) conc ([3]; Group 1): 16.5 ± 2.4 µg/mL; Serum half-life ([3]; Group 1): 9.1 ± 1.4 min; Total Clearance ([3]; Group 1): 5.8 ± 1.2 mL/min/kg; Volume of Distribution ([3]; Group 1): 0.067 ± 0.009 L/kg; Peak (t = O) conc ([3]; Group 2): 23.7 ± 1.7 µg/mL; Serum half-life ([3]; Group 2): 11.1 ± 1.2 min; Total Clearance ([3]; Group 2): 2.9 ± 0.1 mL/min/kg; Volume of Distribution ([3]; Group 2): 0.0446 ± 0.0037 L/kg; IH50 (concentration giving 50% inhibition of hemolysis) ([4]; SRBC, human serum as complement source): 20 ± 7 ng/mL

Which results are given for “TP10HD-CXD: TP10HD-CX enzymatically deglycosylated with n-glycanase”?
α phase half-life [1]: < 1 min; β phase half-life [1]: 6.1 min; plasma half-life / clearance, in words [5]: cleared rapidly; IH50 (concentration giving 50% inhibition of hemolysis) ([4]; comparison before and after deglycosylation): 40 ng/mL

Which “binding to iC3” value [6] does the source give for “non-glycosylated form of CR1: non-glycosylated form of CR1 produced in the presence of tunicamycin” here?
The value was “reduced binding to iC3”.

For “sCR1/pBSCR1c: soluble CR1 construct containing LHR-A, LHR-B, LHR-C, LHR-D, SCR29, SCR30 regions up to and including the first alanine residue of the transmembrane region”, which “post-ischemic myocardial inflammation and necrosis” value [7] is on record?
The value was “suppressed post-ischemic myocardial inflammation and necrosis”.

What about the “activity in reversed passive Arthus reaction” value [8] of the same substance?
Its value is “demonstrated in vivo activity”.

What about the “survival rates following transplantation” value [9] of the same substance?
The value was “extended survival rates following transplantation”.
